From the supplement of paper PMC9876800

Test system: peptide library, one residue held at a place counted from the S/T acceptor
Test: relative phosphorylation of the sub-library (ratio to the mean residue at this position); human; higher = residue favoured
Procedure, shortened: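 Relative sub-library phosphorylation is the ratio of each sub-library's signal to the mean residue at that position. The signal came from phosphorimaging of spots on streptavidin membranes, quantified by densitometry, after purified recombinant kinases reacted with biotinylated degenerate peptide sub-libraries in 384-well plates. Reactions held 50 μM peptide and 50 μM ATP spiked with γ-32P-ATP for 90 min under kinase-specific conditions.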

Chain of TNIK, construct: aa1-314 (Q9UKE5 1-314, looked up): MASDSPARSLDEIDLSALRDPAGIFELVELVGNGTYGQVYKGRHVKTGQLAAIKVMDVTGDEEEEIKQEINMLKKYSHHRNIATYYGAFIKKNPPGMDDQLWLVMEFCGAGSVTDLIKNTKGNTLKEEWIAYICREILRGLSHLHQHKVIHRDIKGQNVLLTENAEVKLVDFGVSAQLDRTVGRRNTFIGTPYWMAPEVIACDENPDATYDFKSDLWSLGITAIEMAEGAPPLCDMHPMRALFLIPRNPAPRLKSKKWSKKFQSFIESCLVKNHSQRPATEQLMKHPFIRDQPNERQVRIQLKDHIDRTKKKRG
Chain of GRK7, construct: Full length (Q8WTQ7 whole entry, looked up): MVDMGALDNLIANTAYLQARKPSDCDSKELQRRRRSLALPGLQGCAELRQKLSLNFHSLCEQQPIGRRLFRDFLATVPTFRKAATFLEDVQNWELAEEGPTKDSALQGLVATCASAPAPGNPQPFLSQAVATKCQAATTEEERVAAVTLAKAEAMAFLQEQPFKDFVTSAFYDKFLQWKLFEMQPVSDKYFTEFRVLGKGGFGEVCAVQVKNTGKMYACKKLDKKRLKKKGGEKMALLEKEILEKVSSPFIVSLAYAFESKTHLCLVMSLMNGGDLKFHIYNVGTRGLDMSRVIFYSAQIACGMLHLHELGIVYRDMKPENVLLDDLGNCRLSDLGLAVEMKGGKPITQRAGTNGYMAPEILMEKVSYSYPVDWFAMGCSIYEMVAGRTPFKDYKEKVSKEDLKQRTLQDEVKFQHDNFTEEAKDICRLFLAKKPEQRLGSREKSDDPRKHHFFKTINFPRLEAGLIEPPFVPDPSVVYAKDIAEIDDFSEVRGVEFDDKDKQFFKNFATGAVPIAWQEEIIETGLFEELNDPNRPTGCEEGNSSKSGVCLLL
Chain of RPS6KA6, construct: Full length (Q9UK32 whole entry, looked up): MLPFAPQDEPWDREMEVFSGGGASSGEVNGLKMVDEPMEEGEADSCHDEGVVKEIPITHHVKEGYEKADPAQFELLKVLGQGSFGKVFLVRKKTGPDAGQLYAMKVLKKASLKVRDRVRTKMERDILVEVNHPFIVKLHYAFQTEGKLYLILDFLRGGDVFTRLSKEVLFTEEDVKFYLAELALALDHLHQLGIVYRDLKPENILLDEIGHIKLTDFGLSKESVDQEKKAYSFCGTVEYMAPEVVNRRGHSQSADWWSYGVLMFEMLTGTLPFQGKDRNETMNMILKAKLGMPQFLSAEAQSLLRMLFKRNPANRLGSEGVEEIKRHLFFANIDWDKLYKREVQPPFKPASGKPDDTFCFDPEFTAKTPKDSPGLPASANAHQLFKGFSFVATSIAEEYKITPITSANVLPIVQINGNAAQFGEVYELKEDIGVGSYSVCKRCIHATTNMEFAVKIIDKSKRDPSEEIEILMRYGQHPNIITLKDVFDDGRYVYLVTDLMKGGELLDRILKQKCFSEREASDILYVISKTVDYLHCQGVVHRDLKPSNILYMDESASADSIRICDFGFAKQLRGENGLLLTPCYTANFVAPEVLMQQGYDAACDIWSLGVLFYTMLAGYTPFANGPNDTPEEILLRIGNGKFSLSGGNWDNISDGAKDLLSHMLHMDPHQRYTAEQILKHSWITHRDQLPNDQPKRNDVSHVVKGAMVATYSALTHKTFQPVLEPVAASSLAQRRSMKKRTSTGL
Chain of CAMK2D, construct: Full length (Q13557 whole entry, looked up): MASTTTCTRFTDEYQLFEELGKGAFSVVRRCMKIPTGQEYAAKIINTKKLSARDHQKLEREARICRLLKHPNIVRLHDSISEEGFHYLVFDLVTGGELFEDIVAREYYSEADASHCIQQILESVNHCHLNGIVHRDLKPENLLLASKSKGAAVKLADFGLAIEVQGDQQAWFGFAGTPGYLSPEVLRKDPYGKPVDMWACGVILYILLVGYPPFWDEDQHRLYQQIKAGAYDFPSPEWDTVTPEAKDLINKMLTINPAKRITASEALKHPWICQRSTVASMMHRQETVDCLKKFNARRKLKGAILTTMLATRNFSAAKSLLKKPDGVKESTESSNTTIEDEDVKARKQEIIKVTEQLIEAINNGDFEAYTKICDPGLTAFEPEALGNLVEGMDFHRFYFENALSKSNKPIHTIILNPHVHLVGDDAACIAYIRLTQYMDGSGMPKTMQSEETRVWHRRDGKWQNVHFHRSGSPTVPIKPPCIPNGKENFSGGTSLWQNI

RPS6KA6, construct: Full length (from UniProt Q9UK32)
relative phosphorylation
Settings | at +1 | at +2 | at +3 | at +4 | at -1 | at -2 | at -3 | at -4 | at -5
A fixed | 0.637 | 0.911 | 0.754 | 0.964 | 0.769 | 0.556 | 0.382 | 0.988 | 0.874
D fixed | 0.481 | 1.09 | 1.24 | 1.3 | 0.622 | 0.544 | 0.444 | 0.785 | 0.613
E fixed | 1.44 | 0.799 | 1.65 | 1.36 | 0.635 | 0.549 | 0.417 | 0.96 | 0.608
F fixed | 1.16 | 0.623 | 0.837 | 0.671 | 0.525 | 0.463 | 0.251 | 0.582 | 0.7
G fixed | 0.574 | 0.967 | 1.23 | 1.37 | 1.1 | 0.812 | 0.527 | 1.13 | 0.932
H fixed | 0.943 | 2.06 | 1.29 | 1.12 | 0.934 | 1.04 | 0.564 | 0.915 | 1
I fixed | 1.49 | 0.54 | 0.708 | 0.609 | 0.262 | 0.364 | 0.205 | 0.479 | 0.433
K fixed | 1.14 | 0.761 | 1.12 | 1.03 | 2.1 | 2.65 | 1.75 | 1.95 | 2.56
L fixed | 1.1 | 0.498 | 0.815 | 0.648 | 0.657 | 1.01 | 0.245 | 0.563 | 0.539
M fixed | 1.08 | 0.594 | 0.717 | 0.82 | 0.863 | 0.522 | 0.314 | 0.8 | 0.545
N fixed | 0.986 | 1.13 | 1.1 | 1.04 | 1.49 | 0.675 | 0.541 | 0.822 | 0.687
P fixed | 0.407 | 0.498 | 0.699 | 1.66 | 2.81 | 0.914 | 1.11 | 1.49 | 0.755
Q fixed | 1.17 | 0.724 | 1.08 | 1.04 | 1 | 0.644 | 0.548 | 0.917 | 0.657
R fixed | 0.949 | 1.31 | 1.01 | 0.906 | 1.53 | 5.3 | 8.88 | 2.69 | 4.15
V fixed | 1.78 | 0.575 | 0.696 | 0.625 | 0.36 | 0.265 | 0.208 | 0.568 | 0.538
W fixed | 0.716 | 1.58 | 0.975 | 1.03 | 0.468 | 0.27 | 0.286 | 0.681 | 0.705
Y fixed | 0.948 | 2.34 | 1.07 | 0.81 | 0.872 | 0.424 | 0.325 | 0.676 | 0.697
pThr fixed | 2.29 | 1.05 | 1.56 | 2.31 | 0.471 | 0.51 | 0.399 | 0.692 | 0.543
pTyr fixed | 1.69 | 1.18 | 1.86 | 1.37 | 0.705 | 0.517 | 0.442 | 0.645 | 0.647

CAMK2D, construct: Full length (from UniProt Q13557)
relative phosphorylation
Settings | at +1 | at +2 | at +3 | at +4 | at -1 | at -2 | at -3 | at -4 | at -5
A fixed | 0.696 | 0.903 | 1.09 | 1.13 | 1.05 | 1.26 | 0.926 | 1.07 | 0.966
D fixed | 0.461 | 3.3 | 1.4 | 1.45 | 0.967 | 0.476 | 0.264 | 0.439 | 0.415
E fixed | 0.719 | 2.31 | 1.46 | 1.41 | 0.674 | 0.625 | 0.316 | 0.691 | 0.378
F fixed | 2.39 | 0.604 | 0.852 | 0.726 | 0.811 | 0.914 | 0.887 | 1.22 | 1.38
G fixed | 0.609 | 1.06 | 1.51 | 1.38 | 1.17 | 1.41 | 0.814 | 1.03 | 0.827
H fixed | 0.719 | 1.03 | 1.17 | 0.962 | 1.08 | 0.894 | 1.05 | 0.86 | 0.922
I fixed | 1.93 | 0.599 | 0.699 | 0.705 | 0.699 | 0.547 | 0.575 | 0.946 | 1.11
K fixed | 0.476 | 0.569 | 0.669 | 0.688 | 1.21 | 0.858 | 1.68 | 0.967 | 0.794
L fixed | 1.44 | 0.553 | 0.894 | 0.686 | 0.893 | 0.62 | 0.626 | 1.03 | 1.7
M fixed | 1.72 | 0.605 | 0.793 | 0.711 | 1.15 | 1.12 | 0.782 | 1.2 | 1.22
N fixed | 0.705 | 1.17 | 0.981 | 1.03 | 1.23 | 0.956 | 0.689 | 0.707 | 0.597
P fixed | 0.278 | 0.626 | 1.09 | 1.81 | 1.55 | 0.45 | 0.909 | 1.02 | 1.12
Q fixed | 1.17 | 0.957 | 1.03 | 1 | 1.16 | 2.51 | 0.973 | 0.875 | 0.708
R fixed | 0.5 | 0.716 | 0.61 | 0.549 | 0.882 | 1.02 | 3.93 | 1.09 | 1.03
V fixed | 1.65 | 0.676 | 0.835 | 0.787 | 0.728 | 0.655 | 0.551 | 0.926 | 0.92
W fixed | 0.636 | 0.619 | 0.977 | 1.1 | 0.7 | 1.74 | 1.19 | 1.66 | 1.68
Y fixed | 0.9 | 0.702 | 0.963 | 0.88 | 1.05 | 0.949 | 0.844 | 1.27 | 1.24
pThr fixed | 1.02 | 1.01 | 1.39 | 2.4 | 0.353 | 0.348 | 0.448 | 0.653 | 0.605
pTyr fixed | 0.872 | 3.27 | 1.12 | 1.45 | 0.933 | 0.349 | 0.424 | 0.609 | 0.606

GRK7, construct: Full length (from UniProt Q8WTQ7)
relative phosphorylation
Settings | at +1 | at +2 | at +3 | at +4 | at -1 | at -2 | at -3 | at -4 | at -5
A fixed | 0.839 | 1.23 | 0.77 | 1.09 | 0.809 | 0.805 | 0.636 | 0.878 | 0.87
D fixed | 0.701 | 0.93 | 1.85 | 1.55 | 1.57 | 3.03 | 2.12 | 2.48 | 2.26
E fixed | 2.1 | 0.894 | 4.35 | 1.69 | 1.31 | 2.43 | 1.75 | 1.9 | 2.03
F fixed | 1.46 | 0.843 | 0.513 | 0.682 | 0.512 | 0.624 | 0.474 | 0.516 | 0.621
G fixed | 0.823 | 1.15 | 0.924 | 1.1 | 1.7 | 1.13 | 1.24 | 1.04 | 1.34
H fixed | 0.927 | 1.21 | 0.851 | 1.08 | 1.1 | 0.573 | 0.673 | 0.699 | 0.883
I fixed | 0.765 | 1.11 | 0.372 | 0.799 | 0.495 | 0.533 | 0.499 | 0.553 | 0.729
K fixed | 0.58 | 1.02 | 1.54 | 1.05 | 1.47 | 0.693 | 1.44 | 0.738 | 0.838
L fixed | 0.907 | 0.921 | 0.581 | 0.818 | 0.621 | 0.548 | 0.534 | 0.54 | 0.589
M fixed | 0.899 | 0.689 | 0.401 | 0.658 | 0.53 | 0.572 | 0.493 | 0.58 | 0.678
N fixed | 0.704 | 1.15 | 0.604 | 0.726 | 1.66 | 0.956 | 1.16 | 0.872 | 0.96
P fixed | 0.826 | 1.2 | 0.999 | 1.43 | 1.26 | 1.71 | 1.89 | 2.61 | 1.16
Q fixed | 1.08 | 0.88 | 0.896 | 0.926 | 1.22 | 0.687 | 0.794 | 0.728 | 0.73
R fixed | 0.56 | 1.02 | 0.848 | 0.792 | 0.891 | 0.762 | 1.58 | 0.798 | 0.955
V fixed | 0.654 | 1.07 | 0.415 | 0.894 | 0.629 | 0.589 | 0.544 | 0.754 | 0.751
W fixed | 1.93 | 0.822 | 0.572 | 0.758 | 0.513 | 0.614 | 0.554 | 0.702 | 0.858
Y fixed | 1.25 | 0.868 | 0.515 | 0.975 | 0.717 | 0.737 | 0.623 | 0.61 | 0.753
pThr fixed | 2.52 | 1.05 | 1.66 | 3.54 | 1.01 | 3.79 | 2.48 | 2.06 | 1.5
pTyr fixed | 7.56 | 1.29 | 1.41 | 1.9 | 2.83 | 3.58 | 2.14 | 1.9 | 1.67

TNIK, construct: aa1-314 (from UniProt Q9UKE5)
relative phosphorylation
Settings | at +1 | at +2 | at +3 | at +4 | at -1 | at -2 | at -3 | at -4 | at -5
A fixed | 0.761 | 1.16 | 0.938 | 1.13 | 1.07 | 1.21 | 1.01 | 1.08 | 1.36
D fixed | 0.223 | 0.678 | 0.496 | 0.73 | 0.855 | 0.883 | 0.799 | 0.968 | 0.923
E fixed | 0.249 | 0.591 | 0.389 | 0.656 | 0.682 | 0.577 | 0.76 | 1.1 | 0.885
F fixed | 0.89 | 0.449 | 0.465 | 0.632 | 0.699 | 1.24 | 0.895 | 0.959 | 0.909
G fixed | 0.746 | 1.01 | 0.904 | 1.17 | 1.73 | 1.3 | 1.2 | 1.18 | 1.31
H fixed | 0.916 | 1.28 | 0.94 | 1.06 | 1.52 | 1.19 | 1.47 | 1.13 | 1.02
I fixed | 1.49 | 0.459 | 0.381 | 0.593 | 0.326 | 0.689 | 0.701 | 0.73 | 0.724
K fixed | 1.08 | 2.49 | 3.02 | 2.18 | 1.36 | 0.919 | 1.44 | 1.17 | 1.2
L fixed | 2.4 | 0.685 | 0.777 | 0.636 | 0.803 | 0.595 | 0.67 | 0.751 | 0.619
M fixed | 1.98 | 0.806 | 0.52 | 0.715 | 1.06 | 0.79 | 0.814 | 0.866 | 0.793
N fixed | 0.843 | 0.992 | 0.871 | 1.02 | 1.33 | 1.19 | 1.15 | 0.792 | 1.02
P fixed | 0.338 | 1.05 | 1.14 | 1.23 | 0.65 | 0.736 | 1.08 | 1.18 | 1.41
Q fixed | 0.782 | 1.04 | 0.886 | 1.04 | 0.859 | 0.987 | 0.896 | 0.964 | 0.912
R fixed | 0.995 | 2.4 | 3.23 | 2.2 | 1.7 | 1.19 | 1.33 | 1.17 | 1.22
V fixed | 0.898 | 0.531 | 0.503 | 0.65 | 0.438 | 0.785 | 0.594 | 0.816 | 0.891
W fixed | 1.32 | 0.593 | 0.789 | 0.738 | 0.685 | 1.17 | 1.04 | 0.954 | 0.771
Y fixed | 1.08 | 0.783 | 0.745 | 0.619 | 1.23 | 1.55 | 1.16 | 1.19 | 1.02
pThr fixed | 0.541 | 0.566 | 0.532 | 0.519 | 0.449 | 0.797 | 0.884 | 0.945 | 1
pTyr fixed | 0.42 | 0.505 | 0.638 | 0.581 | 1.02 | 0.969 | 1.22 | 1.15 | 1.03
